Test: soluble fraction after stress (log2 fold change); higher = more stays soluble; pooled small domains, quantitative proteomics
Conditions: stress: 75 degC
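Further: 20 min heating vs room temperature control held 20 min.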

Sequence	soluble fraction (log2)
HMEVEIPSREALLGLVQKHLKPVSFDEFVSHFKLGDERQQVGIKRRLRAMERDGQLVYTKANSYGLPDRM	0.436
HMEVGVSGTVFNTDSLNVRKGPGTNFDTVTSLKRGSVVEVFEQSAVDGTVWGRIANGWVNMQYVSL	-0.707
HMEVKEVDYSAFMTMTEENSISKVEIEENQILFKKKGDDQTTYKTARMDDPALITRLHDQGVDFTGQ	0.139
HMEVKRANRKERFLEALPYQFSRQDYLNIADKNKIPHKTAEGYITKFVDAGLIHREAHNNYTNPTKA	-0.0913
HMEVLPLHQVKLKYAEADTILIALKSAQSMLSPRGQLLADNRSQQIFVYDDEAHTATLIEAIKHLDQPL	-0.166
HMEVLTEPKVQSIDTHGEKSTFVIESPNPLQPDEIAKLVGADGISVRVDRTWLKSHRDSTWTYSILTVS	-0.118
HMEVPFRNAAIFKTRSGDYAIRASYDGVDLGIKPIEKSTARTYFQLTDVKDKESFLNMTARNQYESEIAGI	-0.0612
HMEVPNLIGMTDKDLQRTYFQLPIEAAGDGSVVIKQLPEPGEKVKEGSVIRVLLG	0.193
HMEVPQKTLEILEPWRGRKGFLIPVLQAVQHEFGYVPKEAIETVSREMKMPTAEIYGVVTFYAQFH	-0.571
HMEVSEGEIREKVESVFSSNPRQAYNYKQISKKLNINDKSERQIVWDVLRKLAGSGKIQEVEHGRFRARAE	-0.162
HMEVSKETFPAYVAVDSLPVYKSASTSSSKVTTIDFGREVTVVETRGGWAKIQYGSYKGFAEIEGMSKN	-1.06
HMEVVELTDDEKMILATLHDGPVEIGHIKQVVGLSGKKWDAATKSLRQKGLINVVLENEQKLMVK	0.492
HMEWGEADFVRLDEALATLRTLSPRQAEVVDLRFFSELSLEETAATLGLSLATVKRDWSVARLYLQRALS	0.198
HMEWTVEKQAAATLNAWMRKNSEMTSEKKVAVAAGIGPATVNRIMKAEVSTTIGVLSSLARAFGHEAYEMI	-0.0249
HMEYDEVVVVKQIIPKGKNTMVAHLKHLKEHGETGFLKQAVGYLKLHASEIPFSVDAVISEVH	-0.253
HMEYDYKVIDFFKDYYSYLNYQEIEPNILDKQLTTLTEEESAKIAGIMKLDYEDFTRGIEIVTGS	-0.536
HMEYLIENYGSVINQARMKKGMTQEQLSSKTGVSQAYIRSIESQNMKPTDAVARKIEFELGIKLFE	-1.05
HMEYSKSIKRLREDKNLTVEELAKRLSLDVEEIQKAEDGEDVDQKTLEAIARYFGVQYDSLVEGTAKSK	-0.0335
HMEYTTEELDSLLKLYFQTHESINRNEFEQLTSYTRTTASRRLKTLVQAGKLQNIGLYRFPVYKPTEGNF	-2.82
HMEYYWHQLKGLEVVNTRGESLGRVRRLLETGANDVLVLEGEQERLIPYVPDTIKQVDLAKGLIEVAWDRD	-0.17
HMFAADIGVGIVDADSLRVRSEPSTGAPIVTSLLRGTQVTVQEKLDGWYRITYNDVSGFVSAEYLIFTADE	-0.358
HMFAGEWKQDASGWWYQNDDGSFTRNGWQNISGKQYYFNENGYMLHDTTTPDGKQVGSDGSLV	0.0573
HMFAKVEGITGDILDKLQQQRGFLALSDKSSPEAIYDTFGVSKKVFKQAIGTLFKQQKISIEAEGIRLV	-1.56
HMFASSADGVEGLKTNPIFASTKEKSDAGKLLYTRYLAIGIFRMLELAKATDPKALEALVEAGG	0.259
HMFDDEELDTFAGRQSDSYDQQEVEQFSDVLHTMRQDEVQAWWRSLTLRGISLPDELKDEVIML	-0.481
HMFDDLSTNLRDLAHNYIEKYSPSKQQLKVFLLKKYLMKFKGSKTKKEISEIIDKIISNLEENKYLNDEL	0.36

Sequence	soluble fraction (log2)
HMFDFMVLGQAIKKARESKEMTREQLAEILDVAPRHIQSIENEGQYPSFPLFIRLVTMFNISVDQY	-2.31
HMFDGNIKIVEDAFSVTIVARGTEVKISGDPENVYLASKTVEGLLTLIDKGEAITDQRVHYVIGLVREG	-2.45
HMFDGTLSIYPNPSKGIFNLDLLNVKDGEYTITVDNLLGQEVYSEIRNVINSSSKTLDLSNLTKGV	-0.204
HMFDLKKIYGTILDETKSSLLLSTDDGREVQIIKTDGTEVLASGLGVYVEVAYRDETPDGYPIALTI	-0.41
HMFDTVKIGKRIAELRKKRDMTQFELADRLGISYQAVSNWERGNSMPDIAKLPELAEIFGVTVDEILG	0.283
HMFEARNTTFSEDGKTITETYGVKRIETEFVSDSTIVQKLYDNDVLTKTKTITFSADGLSIKEDV	-0.0561
HMFEDYNELDEYLETRFIPTYVLLKQRKNANGEIDHFPSIRLQHIMALKLSEAELEHVMNYLKEKNIRVG	-1.68
HMFEKVKLTLTIPSKYSGSTYSALRNRMNKFSKEEWLSNGDLKIEIEVTGGQKTDIYTLINKLTNGEAIIE	-1.25
HMFELDELDLVILKNLANGLSKKQIRVKLKKMDLRPNSESAIDKRVSKLFDEFGAKNSTELVAKLIREGL	-2.71
HMFELTVGTPIRVIREPYFGKLGTVTELPAQLMVVESGTEVRVLKAKIEGEGEVLVPRANVEIIATG	-1.38
HMFELVKISENIPIRDLAETLKTTPNEIIKELMVFGVLANINQTLNFDLASKVADKLGFEVELL	-0.266
HMFEMPTSLVRTLSAIAIKQPVMQSEIIKLRGAGAYDHIKELIIRELVHRKEEGRSPILTTTKKFQEYFRL	-2.52
HMFERIYVFSRDGDIIELPKGSTVLDFAYHVHTHVGNRAQAARVNKRYVPLTYQLKTGEQVEIIIS	-1.44
HMFEYDEEEYEKLGPNADLTIKSMTDWGQSLVRKGVWSESDFEEFKIMGGTAQGLRALQKVRSYY	-0.649
HMFFAGLSPEAARTLDSLPLHSWSSVEQIARQAGLNIETVRKELGLLELSGIALSRQGRFRRA	-1.07
HMFFFILNKGAKSGGEITHAVLNGSIVSKPAGWDAFHGLVLAKEKLSSEEIQRQMKELGVEMEIVPL	-2.4
HMFGDQMQSYLSRLSQIDVDIIALKYGDNFTYREIGLILEMSEDSVRQRAVRARKKLETMIQKG	-3.31
HMFGEDNLKSKEIKERVTEVAKHADDPVWIEARRKWKDENPDQNVKDYQQAYISGRIHELPWDVSYI	0.117
HMFGEKEFYQWIGKTAGEKFSGLPAAVIKSLYKYWREYNLSEEDIMGFIRQTELLPKRTPLDVELFFEK	-0.857
HMFGELTPDTAKRFLLTAREQEMASLIAQGLTNKEIAFRLGISEATVRTHIYNLFQKVGVQSRIELLNVLH	-1.69
HMFGNTGETSGTGVAFTRSPVDGENKIFGEFLVNAQGEDVVAGIRTPQPISEMEQAFPEVYSKFESVAEIL	0.0261
HMFHDALVSFAERRVIFMKELVNRLNEARKAYYEGESIMSDKEYDNLYDKLVKMELTTGVVLPNSPTEEVG	-1.33
HMFIEHSKYKLSFKYNQLGKISNVINSNNGIIMDKHFDQNITLLAKLTENTFQEIIKHFPTIIIKRL	-3.74
HMFIEPPSLEELERRLRGRGTETDDVVDMRMRTALVELSQKMEYDYRLVNDDLDEATRQLVAYVNEIAEQ	-0.0555
HMFIPMTDAQRHLFANKLAKLPELSEYSRGTESYEDFAIRIADMLLEPPKFRMFYPLLEQLGF	-1.77
HMFIVTDQMQRVLDYITEKEKATNNDLEELLGVKSTRIYTITRKLIQHNLIIPVGKGKNKYYIL	-0.902

Sequence	soluble fraction (log2)
HMFKDVTVPSVINKTEAEATNMLKGLNLVVSVEYEENANKSDGIVTAQNVNANKVIKEGETVTITVNKQP	0.113
HMFKNWMPFDEARIFVRKLKFNSHDEFRKYLKANEINIPSKPWSTYKGKGWVSIGDFLGTHR	-3.26
HMFLPGETFDVKIVKIGEGENQGVGYLDDGTMIVIENGRDHLNELARVIVTRVLQNSAGQMIFSDYEE	-2.21
HMFLTPLEETRLAIEEVVIAKNIAIDLFPRESAIRKQQHELIYHYHLKGLTVGTEKNKRLRIFPRGY	0.0279
HMFLTSDEGKIMQLLEDKQRITRKDAQELLGVSQSTAGRILKTLVDNGQITQRGGGRTTRYELIK	0.104
HMFMKNTEVALAIKGKFSNQTTITSKELVLFLSDLFPELSNKTIPWKINQLKAENLIYQTGRGIYTFN	-2.53
HMFMMVAGHLQIKNEKYYMVLELRTEQGERKTKWIGTGLAVKGNKRRAEAMLEETRTKYLSPV	-2.18
HMFMPGTIIKQFRELRNYSQDYVSRKMGISQNAYSKIENNITQLTVTHVKQLSSILDVPIVELLR	-3.71
HMFMSDDDIRILVKEWLQSQNRKSYQLAEEIGIRPQTFYAQMSVRKISANTKKALSRIIPGL	-0.769
HMFMSKTAMVAIISEADKYGLFNIPEGLSVEKTADEIFEGHIEVDFDKLKNELDFVYKNEALEKQFQEN	-0.852
HMFNPEQDPKQLTGRERAVADLIGLGANNAEIAIRLSMSERTVKAHLTSIFQQLNVRDRVQLALVMNQL	-0.493
HMFPASQPVPTDLNQIVRAGLEVFSGRLEGIDVRVSLEPELPRVNVDPEHFKRIVVNLVDNAAEAMQNS	0.183
HMFPATAPQLKAVHAILGKQGISDELDKLARVNEWLVGLNKEPVAAISELDKHTTSGLIDHLQGELNE	0.297
HMFPDLSPEQQRIVDVLTKSNDLQLNQLSVKTGIPIGDITSILFQMEMMGVVKPMAGGNYHLL	-1.68
HMFPDLTEDEQLIVDVLQRTGDLQINSLIVEANIPVNKMSEILFELEMKGVIRTLAGGVYQLL	-2.05
HMFPDRLRELRKGRNITLETLAEEMNKHLEPGQKPNTAAQIGNWERGDRSPSYIEVRKLADFFNVSMDFL	-0.586
HMFPELNAEETQVVQLLQKQTEGMQVNSLVVESNIPITRMSGILFELELKGIIRNYAGGVYKL	-3.2
HMFPELSEEAKVIVDALSKENDQQLNVLIANTGMAVGTMQAKLFELEMQGVVKPLAGSVYHLM	0.111
HMFPELTDDEQLIVSTLAKTNDMQINMLAVRTGIPVQRMSALLFSLEMKGVVKMYAGGTYHLL	-2.93
HMFPNQLLISRLSNQLSASERFAAVSSIAQLKNIDYDVLHVLVHTMNSDPNSNVRLAALEALSR	-0.459
HMFPQQGEIRQGVIASITPDQILVNVGTKSEGIISGKELEAISKSERDSLNVDQKIAVYILDPEDSNG	0.395
HMFQNPSQVVTTRVGELRAAIPTAQQGRITMGVAVVEDANSVRSVLISTSEPRGYLRPGVTLGPGETMV	0.0661
HMFQPFFENLRKASIPVSLREYLTFLEGMKKGLVTYDIEAFYFLARAAMVKDERNIDKFDRAFSATFKG	-0.306
HMFQTAADVAYRIISQKILDGEFPPGMKLSRRKMAEVTSVSVIPVIEALKKLEEDGLVESKPQWGSFVTI	-1.69
HMFQYEKIKDYILTGLEEGTWQAGDKIPSEAELVMSLNVSRMTVNRAVRELANSGLLVRIPGAGTFVATE	-0.643

Reference: the domain aggregation screens of Martell et al. (2025)
